Assay results as given in publication PMC11103113, “Evidence for dual targeting control of Arabidopsis 6-phosphogluconate dehydrogenase isoforms by N-terminal phosphorylation” (Journal of Experimental Botany, 2024).
Numbering of substitutions follows the chain as printed. Names may count otherwise. Values belong to the binder of their own block, whether it stands above or below them.

Columns and labels:
[1] = target: PGD2_new medial C420S (Arabidopsis thaliana) (UniProt Q9FWA3)
[2] = target: the molecule itself; assay: semi-native SDS-PAGE with anti-His immunoblot; His-PGD2 variants from cleared E. coli BL21minus extracts, sample buffer without SDS and DTT and without boiling; monomer to dimer

- 6PGDH activity upon GFP-based pull-down from protoplasts, relative to the corresponding wild-type version (% of the corresponding wild-type version) [1]: 80
B1: PGD2_new medial C420S (enzyme)
chain: MAVQPTRIGLAGLAVMGQNLALNIAEKGFPISVYNRTTSKVDETVERAKKEGNLPLYGFHDPESFVKSIQKPRVIIMLVKAGSPVDQTIKTLSAYLEKGDCIVDGGNEWYENTERREKAVAENGFLYLGMGVSGGEEGARNGPSMMPGGSYEAYKNIEDIVLKVAAQVRDSGPCVTYIGKGGSGNFVKMVHNGIEYGDMQLIAEAYDVLKSVGKLSNEELHSVFSDWNKGELESFLVEITADIFGIKDDKGDGHLVDKVLDKTGMKGTGKWTVQQAAELSVPAPTIESSLDARFLSGLKDERVQAAKVFKAGGFGDILTDQKVDKKQLVDDVRKALYASKICSYAQGMNLIRAKSIEKGWGLKLGELARIWKGGCIIRAIFLDRIKQAYDRNAELANLLVDPEFAKEIIERQSAWRRVVSLAINSGISTPGMSASLAYFDSYRRERLPANLVQAQRDYFGAHTYERTDVEGSFHTEWFKIARQSKI

B2: His-PGD2 wild type (full-length protein) (enzyme, Arabidopsis thaliana, UniProt Q9FWA3 1-486, looked up)
chain: B1 chain with S420C
notes: Arabidopsis thaliana PGD2 (At3g02360), full-length protein, cDNA cloned in pET16b; Cloning analogous to Hölscher et al. (2016); Found as monomer and dimer on the semi-native gel; source: E. coli BL21minus (G6PDH-deficient), in cleared extract
- stoichiometry N [2]: 2
